Values quoted from earlier work as cited in PMC8410215.

Biological target: Glu66 (UniProt position 148, FTKKMEENAKK)
Conditions: folded protein with Glu66 buried in the interior; water molecules penetrate to form a small channel around the residue

In the case of “Staphylococcal nuclease V66E variant (Staphylococcus aureus; V66E)”, the pKa is given as 8.8.
